These results are taken from US20260091061A1 (LEGEND BIOTECH IRELAND, published 2026).

Assay [1] addresses T1, human GCC (human, UniProt P25092 24-1073).
T1 construct: whole, on cells; also called huGCC; Guanylyl cyclase C
Kind of assay: screen of clone supernatants: cell based ELISA on HEK293T.huGCC.Luc cells and ELISA on recombinant human GCC protein (ACRO GUC-H52H5). (In an ELISA, binding on a coated surface is turned into a signal by an enzyme label.)

Another assay deals with T2, huGCC-his (human, UniProt P25092 24-430, limits assumed).
T2 construct: Soluble his-tagged human GCC used as analyte on Biacore; also called GCC (SPR analyte); not shown: his tag
The assay can be described thus: SPR, Biacore T200; antibody captured via Fc, GCC as analyte; 1:1 model. (In general: In SPR one partner is held on a chip, and binding of the other changes the refractive index at the surface.)

Assay [2] addresses T1, human GCC. The assay can be described thus: flow cytometry on HEK293T.huGCC.Luc cells, percentage of binding. A general note: A flow cytometer gives signals particle by particle.
In the next assay the target is T3, mouse GCC (mouse, UniProt Q3UWA6 20-1072).
T3 construct: whole, on cells; also called mGCC; HEK293T.mGCC.Luc cells
T3 sequence (looked up): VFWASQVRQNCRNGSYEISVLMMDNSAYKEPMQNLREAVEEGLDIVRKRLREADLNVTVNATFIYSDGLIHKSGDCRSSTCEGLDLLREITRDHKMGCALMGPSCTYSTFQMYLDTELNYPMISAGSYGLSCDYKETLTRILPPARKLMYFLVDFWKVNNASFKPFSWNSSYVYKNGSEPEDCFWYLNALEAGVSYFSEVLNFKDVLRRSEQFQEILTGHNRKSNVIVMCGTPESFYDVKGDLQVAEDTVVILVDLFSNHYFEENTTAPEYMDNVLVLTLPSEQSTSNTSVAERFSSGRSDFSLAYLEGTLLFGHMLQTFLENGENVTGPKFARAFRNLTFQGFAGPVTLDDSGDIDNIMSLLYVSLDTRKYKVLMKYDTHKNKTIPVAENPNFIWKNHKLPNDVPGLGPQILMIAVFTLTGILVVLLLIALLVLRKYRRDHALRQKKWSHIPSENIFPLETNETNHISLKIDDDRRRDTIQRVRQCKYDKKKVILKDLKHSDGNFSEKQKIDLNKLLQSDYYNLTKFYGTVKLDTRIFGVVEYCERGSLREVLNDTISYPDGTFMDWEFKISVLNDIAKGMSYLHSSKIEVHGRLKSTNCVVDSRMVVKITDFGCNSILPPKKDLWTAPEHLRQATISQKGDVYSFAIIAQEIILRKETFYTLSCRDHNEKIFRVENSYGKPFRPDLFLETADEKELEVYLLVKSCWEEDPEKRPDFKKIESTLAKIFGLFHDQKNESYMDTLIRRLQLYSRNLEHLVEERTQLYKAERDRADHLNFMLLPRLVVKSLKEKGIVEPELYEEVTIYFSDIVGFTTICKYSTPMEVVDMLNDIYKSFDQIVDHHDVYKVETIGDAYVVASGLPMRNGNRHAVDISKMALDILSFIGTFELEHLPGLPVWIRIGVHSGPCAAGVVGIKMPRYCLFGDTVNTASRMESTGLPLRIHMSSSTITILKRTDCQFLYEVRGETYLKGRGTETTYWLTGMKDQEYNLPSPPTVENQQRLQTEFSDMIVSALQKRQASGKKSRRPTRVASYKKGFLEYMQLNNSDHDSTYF
Kind of assay: flow cytometry on HEK293T.mGCC.Luc cells, PE goat anti-mouse IgG secondary; Binding % = cells with antibody bound / total cells.

T2 sequence (P25092 24-430 limits assumed): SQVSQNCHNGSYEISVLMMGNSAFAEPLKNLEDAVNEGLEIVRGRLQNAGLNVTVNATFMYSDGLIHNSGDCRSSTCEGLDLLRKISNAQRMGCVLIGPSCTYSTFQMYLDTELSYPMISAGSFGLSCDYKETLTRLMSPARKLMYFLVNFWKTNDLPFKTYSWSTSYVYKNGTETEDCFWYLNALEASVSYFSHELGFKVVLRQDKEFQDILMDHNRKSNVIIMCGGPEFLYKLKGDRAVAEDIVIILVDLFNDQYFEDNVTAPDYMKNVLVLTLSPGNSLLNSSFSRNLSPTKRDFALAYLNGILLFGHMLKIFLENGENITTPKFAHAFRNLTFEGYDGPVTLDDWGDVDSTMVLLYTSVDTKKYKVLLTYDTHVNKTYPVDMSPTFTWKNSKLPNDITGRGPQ
T1 sequence (P25092 24-1073): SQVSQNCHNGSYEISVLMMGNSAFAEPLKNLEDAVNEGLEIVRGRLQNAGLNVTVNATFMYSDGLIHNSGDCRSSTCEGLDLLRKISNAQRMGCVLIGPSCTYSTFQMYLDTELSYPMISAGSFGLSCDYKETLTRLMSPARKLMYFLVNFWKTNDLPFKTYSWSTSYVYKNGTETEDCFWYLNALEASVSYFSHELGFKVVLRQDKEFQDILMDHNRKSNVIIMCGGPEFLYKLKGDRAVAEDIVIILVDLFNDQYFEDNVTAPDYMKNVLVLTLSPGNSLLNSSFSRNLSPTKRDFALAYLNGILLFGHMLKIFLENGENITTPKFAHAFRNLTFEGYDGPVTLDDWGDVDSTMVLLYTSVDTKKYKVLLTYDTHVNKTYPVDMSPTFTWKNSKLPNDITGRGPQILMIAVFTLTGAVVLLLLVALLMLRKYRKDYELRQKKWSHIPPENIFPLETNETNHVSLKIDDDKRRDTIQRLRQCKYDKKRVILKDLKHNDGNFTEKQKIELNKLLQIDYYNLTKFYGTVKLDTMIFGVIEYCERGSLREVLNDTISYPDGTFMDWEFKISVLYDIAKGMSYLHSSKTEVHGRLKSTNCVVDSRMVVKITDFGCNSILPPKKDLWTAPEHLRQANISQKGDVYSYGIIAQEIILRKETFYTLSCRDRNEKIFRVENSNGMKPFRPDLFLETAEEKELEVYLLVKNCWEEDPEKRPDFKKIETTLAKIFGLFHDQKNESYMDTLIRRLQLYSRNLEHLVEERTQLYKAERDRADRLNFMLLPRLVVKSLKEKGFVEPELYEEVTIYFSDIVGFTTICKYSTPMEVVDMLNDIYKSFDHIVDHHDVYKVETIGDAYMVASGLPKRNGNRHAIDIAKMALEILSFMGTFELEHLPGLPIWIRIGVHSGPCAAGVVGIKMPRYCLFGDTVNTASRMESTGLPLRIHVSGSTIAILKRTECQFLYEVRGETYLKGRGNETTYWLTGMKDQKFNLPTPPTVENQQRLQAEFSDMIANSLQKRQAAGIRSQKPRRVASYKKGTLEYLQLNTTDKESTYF

B1: VHHA2322 (VHH)
VHH: QVHLVESGGGSVQSGGSLRLSCAASGYTGRRLCRGWFRQTPGKEREGVATITLSGRASYADSVKGRFTISQDNAKNTLYLQMNGLKPEDTAMYFCAEVRSADAEWLNPLKCHPDRLGLAGVDWGQGTQVTVSS
notes: Screened as E. coli culture supernatant and detected with an anti-cmyc antibody
For the molecule B1, in the assay with human GCC [1], the binding result is “binds”.

B2: VHHC0464 (VHH)
VHH: QVQLQESGGGLVQAGGSLRLSCLASGLAFPSYAMGWFRQAPGKEREWVSCVTRSGGDTLYADSAKGRFAISRDNAKNTLYLQMNSLKPEDTAMYYCAAALFCANLRRNKDNYWGQGTQVTVSS
notes: as for B1
B2: the binding result in the assay with human GCC [1] is “binds”.

B3: VHHC0467 (VHH)
VHH: QMQLVESGGGLVQAGGSLRLSCIASGLTFPTYAMGWFRQAPGKEREWVSCVTRSGGDTLYADSAKGRFTISRDNAKNTLFLQMNSLKPEDTAMYYCVAALFCHNLRLNTGNYWGQGTQVTVSS
notes: as for B1
As to B3, the binding result with human GCC [1] is given as “binds”.

B4: VHHC0806 (VHH)
VHH: QVHLVESGGGSVQSGGSLRLSCAGSGYTYSTHCMGWFRQAPGKERERVATIDKDGRTSHYADAVKGRFTISQDNAKNTLYLQMSSLNPEDTAMYYCAAAEHRGAWCPLWDRSAPLLAHIHWGQGTQVTVSS
notes: as for B1
As to B4, in the assay with human GCC [1], the binding result is “binds”.

B5: VHHC0708H2-mIgG1Fc (Fc fusion)
chain: EVQLVESGGGVVQPGGSLRLSCAASGYTYSRYCMGWVRQAPGKEREGVALIASDGTTTYADSVKGRFTISQDNSKNTLYLQMNSLRAEDTAVYYCAADAVNWYGSICASMIRRKNPAFGYWGQGTLVTVSSVPRDCGCKPCICTVPEVSSVFIFPPKPKDVLTITLTPKVTCVVVDISKDDPEVQFSWFVDDVEVHTAQTQPREEQFNSTFRSVSELPIMHQDWLNGKEFKCRVNSAAFPAPIEKTISKTKGRPKAPQVYTIPPPKEQMAKDKVSLTCMITDFFPEDITVEWQWNGQPAENYKNTQPIMNTNGSYFVYSKLNVQKSNWEAGNTFTCSVLHEGLHNHHTEKSLSHSPGK
notes: also called humanized chimeric antibody VHHC0708H2-mIgG1Fc
As for B5, in the assay with huGCC-his, binding was put at a Kd of 1.02 nM.

B6: VHHC0694H2-mIgG1Fc (Fc fusion)
chain: QVQLVESGGGVVQPGRSLRLSCAASGYTYSRYCMAWFRQAPGKEREGVAVIDPDGSTTYADSVKGRFTISQDNSKNTLYLQMNSLRAEDTAVYYCAADPRVWYGGTCRAGRTDFSNWGQGTMVTVSSVPRDCGCKPCICTVPEVSSVFIFPPKPKDVLTITLTPKVTCVVVDISKDDPEVQFSWFVDDVEVHTAQTQPREEQFNSTFRSVSELPIMHQDWLNGKEFKCRVNSAAFPAPIEKTISKTKGRPKAPQVYTIPPPKEQMAKDKVSLTCMITDFFPEDITVEWQWNGQPAENYKNTQPIMNTNGSYFVYSKLNVQKSNWEAGNTFTCSVLHEGLHNHHTEKSLSHSPGK
notes: also called humanized chimeric antibody VHHC0694H2-mIgG1Fc
For B6, the Kd (commonly the equilibrium constant for the complex coming apart) with huGCC-his was 1.34 nM. For the same molecule, a half-maximal effect in the assay with human GCC [2] (EC50) was put at 0.0315 nM. Moreover, the binding result with mouse GCC was “no binding (tested: 1000 nM)”.

B7: VHHC0694 (VHH)
VHH: QVQLVESGGGSVQSGGSLRLSCAASGYTYSRYCMAWFRQAPGKEREGVAVIDPDGSTTYADSVKGRFTISQDNAKNTLYLQMNSLKPEDTAMYYCAADPRVWYGGTCRAGRTDFSNWGQGTQVTVSS
notes: as for B1
On to B7, for which the binding result with human GCC [1] was “binds”.

B8: VHHA2322H2-mIgG1Fc (Fc fusion)
chain: QVHLVESGGGVVQPGRSLRLSCAASGYTGRRLCRGWFRQAPGKEREGVATITLSGRASYADSVKGRFTISQDNSKNTLYLQMNSLRAEDTAVYFCAEVRSADAEWLNPLKCHPDRLGLAGVDWGQGTTVTVSSVPRDCGCKPCICTVPEVSSVFIFPPKPKDVLTITLTPKVTCVVVDISKDDPEVQFSWFVDDVEVHTAQTQPREEQFNSTFRSVSELPIMHQDWLNGKEFKCRVNSAAFPAPIEKTISKTKGRPKAPQVYTIPPPKEQMAKDKVSLTCMITDFFPEDITVEWQWNGQPAENYKNTQPIMNTNGSYFVYSKLNVQKSNWEAGNTFTCSVLHEGLHNHHTEKSLSHSPGK
notes: also called humanized chimeric antibody VHHA2322H2-mIgG1Fc
In the assay with huGCC-his, B8 registered a Kd of 1.65 nM. Besides, in the assay with human GCC [2], the concentration giving a half-maximal response (EC50) – broadly, the concentration giving half of the maximal effect – turned out to be 0.0192 nM. Further, the binding result in the assay with mouse GCC is on record as “no binding (tested: 1000 nM)”.

B9: VHHC0494 (VHH)
VHH: QVHLVESGGGSVQSGGSLRLSCATSASPYSMHCMGWFRQAPGKARERVASILNAGSTTYADSVKGRFTISRDNAEKTLYLQMNSLKPEDTGTYYCAARPDAGRWRSACTTELDFGYWGQGTQVTVSS
notes: as for B1
On to B9, for which the binding result in the assay with human GCC [1] is recorded as “binds”.

B10: VHHC0708 (VHH)
VHH: QVQLEESGGGSVQSGGSLRLSCAASGYTYSRYCMGWVRQAPGKEREGVALIASDGTTTYADSVKGRFTISQDNAKNTLYLQMNSLKPEDTAMYYCAADAVNWYGSICASMIRRKNPAFGYWGRGTQVTVSS
notes: as for B1
For B10, the binding result with human GCC [1] was “binds”.

B11: VHHC0524 (VHH)
VHH: QVQLAESGGGSVQSGGSLRLSCAASGYTYSRYCMAWFRQAPGKEREGVAVIVSDNDGSATYADSVKGRFTISQDNAKNMLYLQMNSLKPEDTAMYYCAADPRVWYGGTCRAGRTDFLYWGQGTQVTVSS
notes: as for B1
Regarding B11, the binding result with human GCC [1] is given as “binds”.

B12: VHHA2493 (VHH)
VHH: QMQLVESGGGSVQSGGSLRLSCATNEPPYSIYCMAWFRQAPGKARERVAAILNAGGTRYADSVKGRFTISRDNAAKTFALQMNSLKPEDTGTYYCATRADAGRWGSACTTELDFGNWGQGTQVTVSS
notes: as for B1
As for B12, in the assay with human GCC [1], the binding result is “binds”.
